Key:
[1] = biological target: Hsp70 nucleotide-binding domain (Hsp70NBD); assay: ITC
[2] = biological target: Human Rpn1, full-length, recombinant (human, UniProt Q13200 1-908); assay: ITC
Sequence of Human Rpn1, full-length, recombinant (Q13200 whole entry): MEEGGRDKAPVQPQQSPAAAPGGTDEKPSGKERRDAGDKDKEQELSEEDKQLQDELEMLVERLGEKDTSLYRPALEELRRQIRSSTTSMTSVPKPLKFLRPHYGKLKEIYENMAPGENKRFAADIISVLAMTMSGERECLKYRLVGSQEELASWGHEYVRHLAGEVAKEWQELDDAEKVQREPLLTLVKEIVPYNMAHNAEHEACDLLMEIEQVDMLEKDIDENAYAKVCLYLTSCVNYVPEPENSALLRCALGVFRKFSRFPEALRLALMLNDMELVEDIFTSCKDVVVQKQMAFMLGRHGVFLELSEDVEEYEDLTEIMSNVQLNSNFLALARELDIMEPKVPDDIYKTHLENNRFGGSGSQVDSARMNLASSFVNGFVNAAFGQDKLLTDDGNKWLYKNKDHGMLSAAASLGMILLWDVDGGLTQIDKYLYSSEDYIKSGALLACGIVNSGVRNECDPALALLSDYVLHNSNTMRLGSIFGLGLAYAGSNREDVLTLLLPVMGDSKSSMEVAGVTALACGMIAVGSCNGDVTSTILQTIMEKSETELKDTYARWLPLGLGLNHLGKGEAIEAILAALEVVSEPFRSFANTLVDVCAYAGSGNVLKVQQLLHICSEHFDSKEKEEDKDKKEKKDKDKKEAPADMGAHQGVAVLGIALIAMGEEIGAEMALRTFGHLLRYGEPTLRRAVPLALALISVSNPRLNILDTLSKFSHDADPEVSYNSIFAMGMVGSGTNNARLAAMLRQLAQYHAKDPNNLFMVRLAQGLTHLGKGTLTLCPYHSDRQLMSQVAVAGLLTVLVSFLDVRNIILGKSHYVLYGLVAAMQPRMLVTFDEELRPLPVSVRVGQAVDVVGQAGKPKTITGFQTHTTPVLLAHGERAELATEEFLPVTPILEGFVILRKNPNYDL

Kd [1]: 50 nM
Kd [2]: ~500 nM
B1: Bag1 (Bcl-2 associated anthanogene 1), full-length (natural protein)
chain: MNRSQEVTRDEESTRSEEVTREEMAAAGLTVTVTHSNEKHDLHVTSQQGSSEPVVQDLAQVVEEVIGVPQSFQKLIFKGKSLKEMETPLSALGIQDGCRVMLIGKKNSPQEEVELKKLKHLEKSVEKIADQLEELNKELTGIQQGFLPKDLQAEALCKLDRRVKATIEQFMKILEEIDTLILPENFKDSRLKRKGLVKKVQAFLAECDTVEQNICQETERLQSTNFALAE

— publication doi:10.1101/2025.01.22.633148 (bioRxiv, 2025)
